# From US20210147536A1 (MAB VENTURE BIOPHARM, published 2021)
# T1: human LAG-3-6*His tag recombinant fusion protein (human, UniProt P18627 23-450, biotin-labelled in panning and in Example 9)
# T1 construct: Bought protein; also called hLAG-3-6*his tag recombinant protein; human LAG-3-his tag recombinant fusion protein
# T1 sequence: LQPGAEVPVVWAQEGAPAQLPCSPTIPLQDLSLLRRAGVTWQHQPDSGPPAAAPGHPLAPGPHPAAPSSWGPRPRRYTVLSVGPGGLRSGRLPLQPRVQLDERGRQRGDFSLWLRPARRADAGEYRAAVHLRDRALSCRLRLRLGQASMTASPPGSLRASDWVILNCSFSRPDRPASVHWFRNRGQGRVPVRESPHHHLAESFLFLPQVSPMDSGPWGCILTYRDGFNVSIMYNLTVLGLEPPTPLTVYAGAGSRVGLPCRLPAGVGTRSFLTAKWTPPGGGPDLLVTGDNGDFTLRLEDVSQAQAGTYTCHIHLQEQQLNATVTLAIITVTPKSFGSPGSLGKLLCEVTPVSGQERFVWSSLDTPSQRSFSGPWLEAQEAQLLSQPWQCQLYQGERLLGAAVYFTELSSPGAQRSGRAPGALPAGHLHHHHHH
# T2: human LAG-3 on the cell surface (human, UniProt P18627 23-525)
# T2 construct: whole, on cells; also called cells expressing the human LAG-3
# T2 sequence (looked up): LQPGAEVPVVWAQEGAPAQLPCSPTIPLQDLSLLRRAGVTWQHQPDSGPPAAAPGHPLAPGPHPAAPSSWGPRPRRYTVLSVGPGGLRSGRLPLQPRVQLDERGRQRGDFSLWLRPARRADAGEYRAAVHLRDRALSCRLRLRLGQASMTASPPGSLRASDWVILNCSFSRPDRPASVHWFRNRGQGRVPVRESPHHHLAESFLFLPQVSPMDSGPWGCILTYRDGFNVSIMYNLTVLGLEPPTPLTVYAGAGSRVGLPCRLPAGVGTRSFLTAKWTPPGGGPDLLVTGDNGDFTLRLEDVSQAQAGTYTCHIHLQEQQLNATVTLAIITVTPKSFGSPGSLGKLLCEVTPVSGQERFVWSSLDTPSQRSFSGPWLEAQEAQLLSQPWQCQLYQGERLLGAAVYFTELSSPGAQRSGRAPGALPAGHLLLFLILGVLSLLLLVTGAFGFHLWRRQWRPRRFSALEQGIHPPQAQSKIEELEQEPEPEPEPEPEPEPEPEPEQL
# B1: anti-human LAG-3 full human monoclonal antibody MV705-3 (antibody, human IgG4, V domains shown)
# VH: EVQLLESGAEVKKPGASVKVSCKASGYTFTSYGISWVRQAPGQGLEWMGWISAYNGNTNYAQKLQGRVTMTTDTSTSTAYMELRSLRSDDTAVYYCARDGWWELLRPDDAFDIWGQGTTVTVSS
# VL: QLVLTQSPSVSVSPGQTASITCSGDKLGDKYAYWYQQKPGQAPVLVIYYDSDRPSGIPERFSGSNSGNTATLTISRVEAGDEADYYCQVWDSSSDQVVFGGGTQLTVLG
# notes: Full IgG4 with lambda light chain; also called MV705-3(DD + DD)
# Columns and labels:
# [1] = target: T1, human LAG-3-6*His tag recombinant …; assay: BLI Octet Red96, MV705-3 on AHC sensor, human LAG-3-6*His at 500 nM, 1:1 model
# [2] = target: T1, human LAG-3-6*His tag recombinant …; assay: BLI (Octet Red96), biotinylated hLAG-3-6*his on SA biosensor, antibody 100 µg/mL in solution, 1:2 binding model
# [3] = target: T1, human LAG-3-6*His tag recombinant …; assay: ELISA, antibody coated at 1 µg/ml, human LAG-3-6*His titrated, anti-His HRP; range of three experiments
# [4] = target: T1, human LAG-3-6*His tag recombinant …; assay: ELISA as in Example 4 (antibody coated, human LAG-3-6*His titrated); N = 5
# [5] = target: T1, human LAG-3-6*His tag recombinant …; assay: ELISA, human LAG-3-6*His coated at 1 µg/ml, IgG4 titrated, anti-hIgG HRP
# [6] = target: T2, human LAG-3 on the cell surface; assay: flow cytometry on activated human CD4+ T cells expressing LAG-3, PE anti-human antibody
# [7] = target: T1, human LAG-3-6*His tag recombinant …; assay: BLI (Octet Red96), biotinylated hLAG-3-6*his on SA biosensor, antibody 100 µg/mL in solution, 1:2 binding model; remark: listed apart in the source
# [8] = target: T2, human LAG-3 on the cell surface; assay: flow cytometry on cells expressing the human LAG-3, PE anti-human IgG; N = 4
# [9] = target: T1, human LAG-3-6*His tag recombinant …; assay: BLI (Octet Red96), biotinylated hLAG-3-6*his on SA biosensor, antibody 100 µg/mL in solution, 1:2 binding model; remark: listed apart in the source
# [10] = target: T1, human LAG-3-6*His tag recombinant …; assay: BLI Octet Red96, MV705-3 on AHC sensor, human LAG-3-6*His at 1000 nM, 1:1 model
# [11] = target: T3, recombinant Macaca fascicularis LAG-3-6*His tag fusion protein (Macaca fascicularis); assay: ELISA, antibody coated at 1 µg/ml, Macaca fascicularis LAG-3-6*His titrated, anti-His HRP
# T3 construct: Bought protein; also called Macaca fascicularis LAG-3 antigen
binder,measurement,setting,value
B1,Kd,[1],2.5 nM
same,koff,[1],9.95e-05 s⁻¹
same,kon,[1],39900 M⁻¹ s⁻¹
same,Kd,[2],3.04 nM
same,koff,[2],0.000373 s⁻¹
same,kon,[2],122000 M⁻¹ s⁻¹
same,EC50,[3],0.04 to 0.1 µg/mL
same,EC50,[4],0.039 µg/mL
same,EC50,[5],0.364 µg/mL
same,EC50,[6],0.0019 µg/mL
same,Kd,[7],4.83 nM
same,koff,[7],0.000442 s⁻¹
same,kon,[7],91600 M⁻¹ s⁻¹
same,EC50,[8],0.0023 µg/mL
same,Kd,[9],3.04 nM
same,koff,[9],0.000373 s⁻¹
same,kon,[9],122000 M⁻¹ s⁻¹
same,Kd,[10],1.79 nM
same,koff,[10],0.000106 s⁻¹
same,kon,[10],59300 M⁻¹ s⁻¹
same,EC50,[11],0.11 µg/mL
